Experimental data taken from patent US20240190999A1.

Molecular target: human 4-1BB on primary human CD8 T cells (human) (UniProt Q07011)
Assay: cell-based or functional assay

Sequence of human 4-1BB on primary human CD8 T cells (human) (Q07011 24-255 limits assumed): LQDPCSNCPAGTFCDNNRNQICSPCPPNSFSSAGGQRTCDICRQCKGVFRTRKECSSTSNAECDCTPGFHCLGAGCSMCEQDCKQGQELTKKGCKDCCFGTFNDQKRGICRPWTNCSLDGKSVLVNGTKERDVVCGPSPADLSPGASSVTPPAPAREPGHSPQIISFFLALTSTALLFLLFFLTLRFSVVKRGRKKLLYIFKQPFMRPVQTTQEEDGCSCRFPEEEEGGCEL

| Substance | EC50, IFNγ production by primary human CD8 T cells, antibody cross-linked via anti-Fc [pM] | EC50, IFNγ production by primary human CD8 T cells, antibody soluble [pM] | EC50, IFNγ production by primary human CD8 T cells, cross-linked via coated anti-Fc [pM] | EC50, IFNγ production by primary human CD8 T cells, without Fc-cross-linking [pM] | EC50, IFNγ production by primary human CD8 T cells, Fc-mediated cross-linking [pM] |
| --- | --- | --- | --- | --- | --- |
| Anti-4-1BB mAb 20H4.9 (antibody) | 20 | 930 | 40 | 970 | – |
| Anti-4-1BB mAb MOR-7480 (antibody) | 210 | – | – | – | 420 |
